From the supplement of paper PMC12764529
± gives the half width of the 95% confidence interval.

Legend:
[1] = folding stability dG unfold from chymotrypsin proteolysis; higher = more stable
Method in brief: (§1)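 How resistant each design was to proteolysis was captured as K50, inferred by Bayesian fitting of sequencing counts. Unfolding free energy was then derived relative to a sequence-predicted unfolded-state K50 and a shared folded-state K50, per protease or combined. Digestion used trypsin and chymotrypsin at 11 threefold-diluted concentrations plus a no-protease condition, on mini-proteins under 80 residues without cysteine in a PA-tagged cDNA display construct. Designs were kept only when AlphaFold2 dimer inter-PAE was above 15.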

[2] = folding stability dG unfold (combined trypsin and chymotrypsin); higher = more stable
Method in brief: as §1

[3] = folding stability dG unfold from trypsin proteolysis; higher = more stable
Method in brief: as §1

| Sequence | folding stability dG unfold [1] | folding stability dG unfold [2] | folding stability dG unfold [3] |
| --- | --- | --- | --- |
| SAGGMVEITATVGSPDPSLTDEEIAERILKELGLDPEIVEVTFLERRLVPDAAGRVRVVVEMKFLVPEKSAG [r5_528_JUSTAS] | 4.26 ± 0.16 kcal/mol | 4.73 ± 0.19 kcal/mol | 4.77 ± 0.21 kcal/mol |
| SAGGKKYKVIKEIEITLENGKKIKIKLIEYNEKTNEYILEITYPDGKKITITVPKGMSIEEALKKLLSSAGG [r13_470_TrROS_Hall] | 2.52 ± 0.051 kcal/mol | 2.41 ± 0.12 kcal/mol | 2.37 ± 0.16 kcal/mol |
| SAGGGMLLTTTQTITLPNGTLLTVTSTFTLTPPAVPVPVVELDESSIAEYDPATGILTDPSVPTPIPVPSAG [r5_807_JUSTAS] | 0.596 ± 0.11 kcal/mol | 0.766 ± 0.1 kcal/mol | 0.733 ± 0.066 kcal/mol |
| SAGGSAGGSAGGSKDITITHEHNPNGWYRVKIRFPDNGKKIEIWVPAGRSVEEALDWLFSAGGSAGGSAGGS [r4_393_TrROS] | 3.2 ± 0.038 kcal/mol | 3.25 ± 0.12 kcal/mol | 3.06 ± 0.12 kcal/mol |
| SMTLVLDVSPDKAYKFKIEYKTPDGKRLTVDADTTMEPDGTARVPLKIPDSSVPPGTPLEIEKVEVTPLLSA [r9_359_JUSTAS] | 0.699 ± 0.099 kcal/mol | 0.436 ± 0.066 kcal/mol | -0.136 ± 0.085 kcal/mol |
| SAGGGPPPVEVTTSTDPSTGKVTTTVTAGPAGTRFTSSSPNGSSTTTTTVTYVGDTWEVSTSSTSSSSAGGS [r16_631_JUSTAS] | 1.37 ± 0.11 kcal/mol | 1.31 ± 0.1 kcal/mol | 1.21 ± 0.061 kcal/mol |
| SAGGMTSTLTVTLTVSPSTSPEEAAERAAEALEAAHPDRTVVIESITVTPATGKVVATIKVVGDTGASAGGS [r8_26_JUSTAS] | 1.18 ± 0.029 kcal/mol | 1.39 ± 0.07 kcal/mol | 1.53 ± 0.055 kcal/mol |
| SAGGSAGGSAGMLPLEELLKKNPKPIKVLVKVGDTEYLVEVTPGEKKYTIKVKPLKKSKPSAGGSAGGSAGG [r11_549_TrMRF] | 1.55 ± 0.047 kcal/mol | 1.41 ± 0.076 kcal/mol | 1.08 ± 0.026 kcal/mol |
| SAGGSAGGSAGGSMTVTVTLKDGSTRTFAVPADAPLTLEQLEAAGYPAADIAEVTVTAESAGGSAGGSAGGS [r10_565_JUSTAS] | 3.292 ± 0.021 kcal/mol | 2.96 ± 0.038 kcal/mol | 1.88 ± 0.049 kcal/mol |
| MRLYLVKVEIRREEVDPETGEVREEKLELTVLVREEDEEALEKAEELARKLAEEEGIKEVKVEVVELPAEES [r1_346_TrROS_Hall] | 2.62 ± 0.079 kcal/mol | 2.47 ± 0.25 kcal/mol | 2.3 ± 0.09 kcal/mol |
| SAGGSAGGSAGGMTITLVDPENGVKEAEIEEVDGKLRITVVNEETGEKEEIELPLEELLSAGGSAGGSAGGS [r10_772_TrROS_Hall] | 0.288 ± 0.14 kcal/mol | 0.477 ± 0.16 kcal/mol | 0.648 ± 0.063 kcal/mol |
| SAGGSAGGSPNPKNVKIYLVALDPDKPEVVAEASFNITVDTEEELEAILKELVPLFPGAKVFASAGGSAGGS [r12_1043_TrMRF] | 1.25 ± 0.12 kcal/mol | 1.13 ± 0.1 kcal/mol | 0.853 ± 0.086 kcal/mol |
| SAGGSMTVETSISRLPDGTYTVTVTFTLKNPDGSPVGTITIPVTMSPEVLAKTPLETVVAEAVAAASAGGSA [r2_421_JUSTAS] | 3.48 ± 0.048 kcal/mol | 3.09 ± 0.077 kcal/mol | 2.44 ± 0.056 kcal/mol |
| SAGGSATIEEIANMPAEEIAQEHGMEVKDVDIERVPNGTITVEVEYEPPDGKKHKHTFQIKIDEGQSAGGSA [r15_805_TrROS] | 0.251 ± 0.11 kcal/mol | 0.284 ± 0.2 kcal/mol | 0.089 ± 0.1 kcal/mol |
| PKIEITRVEYHPNEGYYRVTVKLPGKDVSIYMGPENGMMQVYFPGNGREREFPFDSMDDAVDRAKELLKERS [r1_177_TrROS] | 1.55 ± 0.11 kcal/mol | 1.23 ± 0.28 kcal/mol | 1.33 ± 0.12 kcal/mol |
| SAGGSAPWRPITITIPGSWEEIKELAKKFVNDGNIRDVEVEPVPDPGYYKVTVWVRDPNGNWYLVFSAGGSA [r15_177_TrROS] | 3.204 ± 0.031 kcal/mol | 2.9 ± 0.2 kcal/mol | 2.23 ± 0.16 kcal/mol |
| SMVVVKVTASSPEEAEALAKEAEEKLKEEIEKKIKELKKKGINPKELNLNIKIEIETLSYDPANPGKNTPSA [r9_961_JUSTAS] | 0.998 ± 0.066 kcal/mol | 0.827 ± 0.13 kcal/mol | 0.484 ± 0.039 kcal/mol |
| SAGPKKKVEIDVHIMIPFKSWEDRELMLYYARKFAPYIARELAKQNGLPPGVDEVKVDVNIMIIPPGQMSAG [r5_436_TrROS] | 3.87 ± 0.04 kcal/mol | 3.34 ± 0.12 kcal/mol | 2.84 ± 0.12 kcal/mol |
| SAGMEKAINLAKEYAKKLGLPLESINVTEIGNSVIIEMKIPEKGETITVNIPIHPDGTISLNIKFEKKKSAG [r5_888_JUSTAS] | 2.623 ± 0.019 kcal/mol | 2.09 ± 0.087 kcal/mol | 1.2 ± 0.037 kcal/mol |
| SAGGSAGGSAGSIGFDSLEEAEKAIEEARRNNVPLTIELRLPDGSTLRIPVDLEIPEDDPSAGGSAGGSAGG [r17_462_TrMRF] | 1.19 ± 0.037 kcal/mol | 1.46 ± 0.12 kcal/mol | 1.7 ± 0.056 kcal/mol |
| SAGPVVTLTVTVEIEVDGVRVEVTVTATLLPDGTVVITATVKVTLPNGETKTVTVTLTFPPGVDEVVLTSAG [r5_829_TrROS_Hall] | 3.42 ± 0.18 kcal/mol | 3.06 ± 0.25 kcal/mol | 2.62 ± 0.15 kcal/mol |

| Sequence | folding stability dG unfold [1] | folding stability dG unfold [2] | folding stability dG unfold [3] |
| --- | --- | --- | --- |
| TPLTTSTTTVPPSEIATPVTFNAPLSPDTSVTITTYDSATGTTSPVFSTTSASVTLTDLPNVSTATVVVVSS [r1_224_JUSTAS] | -0.255 ± 0.23 kcal/mol | 0.459 ± 0.068 kcal/mol | 0.702 ± 0.018 kcal/mol |
| SAGGSAGGSMLVLKVEVKIEVEEREVIGPDGKIKKEKKIKIEIKIELFELPPLTEEELKKLKESAGGSAGGS [r12_1060_TrROS_Hall] | 4.14 ± 0.21 kcal/mol | 3.6 ± 0.72 kcal/mol | 2.73 ± 0.27 kcal/mol |
| SAMKLVTLEDGTVIETENLSLEEIKERFGGGSISVSDVPPSPAFRVESEEEREALEKEVGPGFVVVEEGSAG [r14_445_JUSTAS] | 0.108 ± 0.11 kcal/mol | 0.414 ± 0.082 kcal/mol | 0.578 ± 0.032 kcal/mol |
| SAGITILFNSAEDAENFAEELAEDYPNMNVTIKIHDPEHGEPVEIPVKIPPPPPKPKRDPDNGNKKYEGSAG [r5_870_TrROS] | 0.506 ± 0.053 kcal/mol | 0.286 ± 0.13 kcal/mol | -0.132 ± 0.043 kcal/mol |
| SAGGKKKVFLLENGELVVFDPETGKLEPVKLPEIPLTVEVEFEEGEGKIRVTVTNPAGLKLEFEFDFSAGGS [r16_453_TrMRF] | 3.69 ± 0.1 kcal/mol | 3.19 ± 0.15 kcal/mol | 2.21 ± 0.12 kcal/mol |
| SAKVITIKLKIKVKTEEELEKAKELADELAKKLAEEGKKVKVEVVKIEVEENENGEKTVTIEIKIYLEPSAG [r14_48_TrROS_Hall] | 3.72 ± 0.21 kcal/mol | 3.6 ± 0.35 kcal/mol | 3.36 ± 0.22 kcal/mol |
| SAGGSAGGSAGGMSLSTSVESLTVFDSSGNVLEERTITVEKTVPLFGKPVYVYPTPSNTLSAGGSAGGSAGG [r17_325_JUSTAS] | 0.248 ± 0.11 kcal/mol | 0.265 ± 0.12 kcal/mol | 0.136 ± 0.1 kcal/mol |
| SAGSITITIETLPDGTIRITIPYTSEEEAKKVAEEVAKEIAEKLGEEVIKFEVTPEDDDTLILTIPIKKSAG [r5_772_JUSTAS] | 1.81 ± 0.092 kcal/mol | 1.78 ± 0.28 kcal/mol | 1.15 ± 0.15 kcal/mol |
| SAGGMTILFEADSLEEARQAVEDLLRDLGIPAIAERITVEERTFRLPAGPGTRRFVLVTIDLRLEPPSAGGS [r16_587_TrMRF] | 2.522 ± 0.021 kcal/mol | 2.62 ± 0.034 kcal/mol | 2.68 ± 0.031 kcal/mol |
| SAGGGMNISVDPNQSVTIPVTRIENGVPVETTVTISLPAGSTISPEGDNIIINYPHTGQTITLPTTLISAGG [r13_275_JUSTAS] | -0.174 ± 0.1 kcal/mol | 0.862 ± 0.041 kcal/mol | 1.36 ± 0.043 kcal/mol |
| SAGGSAGGSFFIRVEYPKGKTRTYPIKNGPIEEALEQLPPGWDNVKVSIYNGNKPVEFEIPLPSAGGSAGGS [r12_767_TrROS] | 1.1 ± 0.074 kcal/mol | 0.806 ± 0.091 kcal/mol | 0.389 ± 0.13 kcal/mol |
| SAGPEKVREAARELFEKLNLPIVSEEAIEVGDAVLIRFEIPEIGTKITILAPVFENGEIKVIVKIEPVSSAG [r5_888_TrMRF] | 1.58 ± 0.032 kcal/mol | 1.65 ± 0.091 kcal/mol | 1.71 ± 0.069 kcal/mol |
| SKTYLVKVTIEYGGKTIEIEVEVETLEEALAAVRAALPPEERAQLPPDAKVTVEVYELPEVDEETGELLESA [r9_111_TrROS_Hall] | 4.2 ± 0.048 kcal/mol | 3.84 ± 0.059 kcal/mol | 2.83 ± 0.07 kcal/mol |
| SAGGSSSLAIITIKPKEIKSYYNPNNPVVVSEMEFEVDITIYSDNEISPEKVKELIEEIEKAFPGIKSAGGS [r8_306_TrMRF] | 2.88 ± 0.11 kcal/mol | 2.32 ± 0.18 kcal/mol | 1.31 ± 0.051 kcal/mol |
| SAGGSAGGSAGGSAGVIVSLSPAPPSADTVVELPKGVTVTVTTVNGERVLTTLVPEALLSAGGSAGGSAGGS [r10_355_JUSTAS] | 0.00971 ± 0.032 kcal/mol | 0.217 ± 0.048 kcal/mol | 0.365 ± 0.013 kcal/mol |
| SAGMAKVKLKVEVYFPKTGKPVTMEIEVEGLTLEEIIEEVKKAIEAIGLKIDPDAPVKIVITDIEVYPGSAG [r5_230_TrMRF] | 3.77 ± 0.039 kcal/mol | 3.77 ± 0.077 kcal/mol | 3.75 ± 0.11 kcal/mol |
| SAGGSAALELVEEVSEFYDPNTGKKTTLVVARKDGKPILILIPPSGATVYDASNGNKLFEIPPELLSAGGSA [r15_85_JUSTAS] | 1.16 ± 0.074 kcal/mol | 0.951 ± 0.065 kcal/mol | 0.61 ± 0.03 kcal/mol |
| SLPPSLTYTLKLSHPDGSTVTATVFPGGSLRVTVYAPGGVKVAESEYPVDDLEALMKALGIKEVLSMELASA [r9_1107_JUSTAS] | 2.85 ± 0.071 kcal/mol | 2.67 ± 0.13 kcal/mol | 1.93 ± 0.082 kcal/mol |
| SAGGSMVVTVSTDSTSEPTTVITITIPPELGNLTDEEKKAIAEEIAKKYPNTKFTFTPTTITITRKSAGGSA [r2_256_JUSTAS] | 2.81 ± 0.054 kcal/mol | 2.37 ± 0.23 kcal/mol | 1.77 ± 0.047 kcal/mol |
| SAGGSAGGSAGAPPEGAKPVEEETVPIEIQMRNDDDGKPIMPIKFEVRVYKFPDGIFISISAGGSAGGSAGG [r11_415_TrROS] | 2.91 ± 0.042 kcal/mol | 2.45 ± 0.21 kcal/mol | 1.34 ± 0.13 kcal/mol |
| SAGGSAKITLWIWMPPGNPDKMAEEIADYLAERHGWTVKIKDVQIERDPEDDQVWIPVKIEIQPPPSAGGSA [r15_70_TrROS] | 1.39 ± 0.31 kcal/mol | 1.91 ± 0.39 kcal/mol | 1.98 ± 0.14 kcal/mol |
